T1: S2hlx-7 epitope scaffold (synthetic design (Rhodopseudomonas …))
T1 construct: source: E. coli BL-21 (DE3), purified (Ni-NTA, SEC)
T1 chain: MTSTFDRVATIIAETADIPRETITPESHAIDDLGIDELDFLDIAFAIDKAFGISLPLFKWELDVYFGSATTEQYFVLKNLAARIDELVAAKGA

T2: synthesized stem helix peptide (1140-1164) (SARS-CoV-2, UniProt P0DTC2)
T2 chain: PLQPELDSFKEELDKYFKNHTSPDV

T3: S2hlx-Ex19 epitope scaffold (synthetic design (Mus musculus VPS54 …))
T3 construct: source: E. coli BL-21 (DE3), purified (Ni-NTA, SEC)
T3 chain: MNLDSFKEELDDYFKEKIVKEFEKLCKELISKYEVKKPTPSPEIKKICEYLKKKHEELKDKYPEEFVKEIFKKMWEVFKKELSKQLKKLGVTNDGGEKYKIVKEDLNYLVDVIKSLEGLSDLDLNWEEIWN

B1: DH1057.1 mAb (antibody, V domains shown)
VH: EVQLVESGTEVKKPGASVKVSCKTSGYIFTNYYIHWVRQAPGQGLEWMGIFNPNGGGTSYAQKFQGRITLTGNTSANTGYMVLRSLTSEDTAVYYCARDPRTSGDNDGFDMWGQGTKVTVSS
VL: VLTQSPATLSLSPGERATLSCRASQSLSSYNYLAWYQQKPGQAPRLLIYAASKRATGIPARFSGSGSGTDFTLTISSLEPEDFAVYFCQQRSNRPPAWTFGQGTKVEIK
notes: source: Expi293F, transfected, purified (Protein A)
B2: DH1501.3 (antibody, V domains shown)
VH: QVQLVQSGAEVKKPGASVRLSCKASGDTFTNEYVQWVRQAPGQGLEWMGLINPSGSGTAFARNFQGRVSMTRDTSTRTVYMDLTSLRYEDTAVYYCARMSRAGTFDLWGQGTMVTVSS
VL: EIVLTQSPDTLSLSLGERATLFCRASETIDSRYLAWYQQKPGRAPRLLMSGTSVRATGIPDRFSGSGSGTDFTLTITRLEPEDFAVYYCQQYGSSPPRYTFGQGTKLAMK
B3: S2P6 mAb (antibody, V domains shown)
VH: EVQLVQSGAEVKKPGASVKVSCKASGYTFTSQYMHWVRQAPGQGLEWIGIINPSGVHTSYAQKFQGRVTLTRDTSTSTLYMELSSLRSEDTAVYYCARGSPKGAFDYWGQGTLVTVSS
VL: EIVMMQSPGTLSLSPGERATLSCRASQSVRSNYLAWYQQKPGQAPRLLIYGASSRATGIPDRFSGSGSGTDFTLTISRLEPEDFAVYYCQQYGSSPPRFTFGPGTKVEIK
notes: IgG; IGHV1-46/IGKV3-20; source: Expi293F, transfected, purified (Protein A)
B4: DH1501.2 (antibody, V domains shown)
VH: EVQLVESGAEVKKPGASVRLSCKASGDTFNNKYVHWVRQAPGQGLEWMGLINPSGSGTAFAQKFQGRVSMTRDTSTRTVYLGLTSLTYEDTAVYYCARMSRAGTFDIWDQGTMVTVSS
VL: EIVLTQSPGTLSLSPGDRATLSCRASENVGTSYLAWYQQKPGQAPRLLISGTSSRATGVPDRFSGSGSGRDFTLTISRLEPEDFAVYYCQQYGSSPPRYTFGQGTKLDMK
B5: CC40.8 mAb (antibody, V domains shown)
VH: EVQLLESGGGLVQPGGSLRLSCAASGFTFSSYVMTWARQAPGKGLEWVSAISGTGYTYYADSVKGRFTVSRDNSKNTLFLQMSSLRAEDTAVYYCAITMAPVVWGQGTTVTVSS
VL: SYELTQPPSVSVSPGQTARITCSGDALPKRYAYWYQQKSGQAPILVIYEDKKRPSGIPERLSGSKSGTVATLTISGAQVEDEADYYCYSTDSSGNHAVFGGGTQLTVL
notes: IgG; source: Expi293F, transfected, purified (Protein A)
B6: DH1501.1 (antibody, V domains shown)
VH: EVQLVESGAEVKKPGASVRVSCKASGFTFTDHYMHWVRQAPGQGLEWMGLINPTGVNTFYAQNFRGRVTMTRDTSTKTDYLEVRSLTSQDTAMYYCARMSRYGAFDIWGQGTMVTVSL
VL: EIVLTQSPGTLSLSPGERATLSCRASQSVGSGYLAWYQQKPGQAPRLLIYGASVRATGIPDRFSGSGSGTDFSLTINRVEPEDFAMYYCQNYGSSPPRYTFGQGTKLEIK

Key:
S2hlx-7 epitope scaffold = target: T1, S2hlx-7 epitope scaffold; test: SPR; conditions: both partners purified
[1] = target: T4, synthesized SARS-CoV-2 stem helix peptide (residues 1147-1161) (SARS-CoV-2, UniProt P0DTC2); test: ELISA; conditions: both partners purified
T4 construct: source: synthetic peptide

[2] = target: T2, synthesized stem helix peptide …; test: ELISA; conditions: both partners purified
[3] = target: biotinylated SARS-CoV-2 Spike protein (WA-2, 2 P) (SARS-CoV-2 WA-2 (entry: reference …, UniProt P0DTC2, stabilised, biotinylated))
OC43 Spike protein, 2 P = OC43 Spike protein, 2 P (human coronavirus OC43, isolate not …, UniProt P36334, stabilised); test: ELISA; conditions: both partners purified
[4] = target: T3, S2hlx-Ex19 epitope scaffold; test: SPR; conditions: both partners purified

Row | Binder | binding result [1] | binding result [3] | binding result (OC43 Spike protein, 2 P) | also measured
1 | B1 | binds |  |  | fold better binding than spike (S2hlx-7 epitope scaffold): > 10 fold; binding result [2]: binds
2 | B2 |  | binds |  | 
3 | B3 |  |  | binds | 
4 | B4 |  | binds |  | 
5 | B5 | no binding |  | binds | Kd [4]: 6.7 nM
6 | B6 |  | binds |  | 

From article PMC10689493 (Nature Communications, 2023)
